Results on 167 variants are retold here after the RNAGym collection of RNA variant scans (doi:10.7554/elife.90254).

B1: LINE1-full (parent)
chain: UACGUAGGUGGUUUUCCCCUGAUAGUGCUAAGGGGGCCUGGAAGUUUGGACUGGGCAGAGCUCAACACAGCGUGGCAAAGUGGCUGUGGCUAGACUGCCUCUCUGGAUUCCUCGUCACUCAGCAGGGCAUCUCUGAGAGAAAUGCC

The variants in this series derive from B1. In words: self-cleavage, relative activity (ratio to wild type); higher = more cleavage; in vitro, sequencing; the parent is a self-cleaving ribozyme.
In the case of G80A A107U, the self-cleavage turned out to be 2.11.
Turning to A78C G122A, the self-cleavage was 1.41.
Next, A77U U81A: 1.89; A79G A140G: 1.12.
Next, A78G U130C: 1.29; A78G U130G: 1.88; A78G U130A: 1.1.
In the case of A77U U96C, the self-cleavage was determined as 0.1.
A77U U96G: the self-cleavage worked out at 0.27.
With A79G G80A the figure was 1.89; with A77U C110U, 0.94; with A78U C116G, 2.13.
Consider C76U U119C, for which the self-cleavage worked out at 2.91.
With A79G G88U the figure was 0.05; with A78U U100A, 1.13.
For A77C G126A, the self-cleavage came out at 1.25.
A78G C146U: the self-cleavage is 1.06.
Next, A78G U87C: 0.15.
Regarding A78G U87A, the self-cleavage was 0.1.
Next, A79U G114A: 1.79.
As for A77U A138G, the self-cleavage is 1.75.
With A77U A138U the figure was 1.27.
Next, A77G A121G: 1.69; A77G U130C: 2.56; A79G G82U: 1.32.
As for A79U U102A, the self-cleavage came out at 2.23.
Next, A78U U104A: 1.8; A78U U104C: 0.87; A77G C113U: 2.28.
As to A77G C113A, the self-cleavage is 2.1.
With A79G G86U the figure was 0.1; with A78U U119C, 2.05; with A78G A140G, 1.18.
Next, A78G A140U: 1.38.
For A79G G135A, the self-cleavage is 1.38.
For A79G A94G, the self-cleavage worked out at 0.35.
With A79C U85C the figure was 0.58; with A79G A121U, 1.13.
Next, A77G A136U: 1.92; A77G A136G: 2.64.
Next, A79U A107U: 1.74; A79U U115C: 1.12; A78U U96A: 0.07.
As to G80A A124U, the self-cleavage stood at 2.27.
In the case of A77G G127U, the self-cleavage is 2.58.
In the case of A79G C120A, the self-cleavage turned out to be 1.39.
Next, A79G C110U: 2.15; A79G C110A: 1.29.
As for A78G G135A, the self-cleavage came out at 1.17.
Next, A78C U112C: 1.94; A77G C133U: 1.99; C76U C101A: 1.6.
With A77U C131U the figure was 1.19; with A79G U81A, 2.28; with A79G U81C, 0.27.
With G80A A121C the figure was 2.91.
Consider G80A A94G, for which the self-cleavage came out at 0.23.
Next, G80U A107G: 0.94; A77U G122A: 0.36; A79C U134A: 1.24.
With A77U G93C the figure was 0.03; with A77U G93U, 0.04; with A77U U102C, 1.24.
With C76U U112A the figure was 2.4; with A79G U100A, 0.71; with C76U U130C, 2.22.
In the case of A77G U102A, the self-cleavage was determined as 2.63.
Next, A79U U143A: 1.29.
With A79U U143C, the self-cleavage stood at 2.02.
Next, A77G G125U: 2.41; A77G G125A: 2.43.
With A77G A117G the figure was 2.32.
Next, G80A A136U: 2.49; A77C U91A: 0.38.
As to A78G G114A, the self-cleavage worked out at 0.83.
Next, A78G G114C: 1.09; G80A U112C: 1.43; A79U C116A: 1.49.
Next, A77C U108C: 1.6; A77G U96A: 0.13; G80A U102C: 1.92.
On to A79G U130A, for which the self-cleavage worked out at 1.09.
In the case of A78G G93A, the self-cleavage was found to be 0.04.
With A79G G137A the figure was 1.03; with A77G U119C, 2.81; with A77U A92U, 0.63.
Next, A77U A92G: 0.05; A77U A121G: 1.6; A78U A79G: 0.74.
Next, A77U C123U: 0.84.
As to A79U U91C, the self-cleavage was found to be 1.04.
Next, A78G C90U: 0.03; A78U C84A: 0.18; C76U U115C: 2.12.
With A78U A124U the figure was 2.15; with A77G U115C, 2.05.
Regarding A77G U115A, the self-cleavage was 2.25.
With A79G U104A the figure was 1.35; with A79G U104G, 1.7.
Next, A79G U104C: 1.22; A78U U102C: 1.12; A79G G126A: 1.51.
Next, A78G U115C: 1.51.
As for A78U G122A, the self-cleavage was found to be 1.36.
With A77G C98G the figure was 0.21.
Turning to A77G C98A, the self-cleavage was determined as 0.23.
Consider A77U U112A, for which the self-cleavage is 1.1.
Regarding A79C A141G, the self-cleavage was 1.96.
With G80C C98U the figure was 0.26; with A78G U119G, 1.04; with A77U A107U, 0.62.
Next, A78U A142U: 2.12; A78U A142G: 1.87; A78G U134A: 0.9.
With A78G U134G the figure was 1.07; with A79G C101A, 0.68.
For A78G U104C, the self-cleavage came out at 1.82.
As to A79G A107G, the self-cleavage was found to be 1.21.
With A79G A107C the figure was 0.92.
For A78G U132C, the self-cleavage turned out to be 1.39.
Next, A78G U132A: 1.62.
With A79G U112A the figure was 1.54; with A79C A121G, 1.67; with A77U A78G, 0.68.
With A79G C84G the figure was 0.07; with A78C U109C, 2.32.
A77U U109C: the self-cleavage came out at 0.98.
With A79G A124G the figure was 0.62; with A77U U104C, 1.74.
Next, A79C A129G: 1.93.
Next, A79G U109A: 1.19; A79G U109C: 1.26.
Regarding A78U U115C, the self-cleavage was determined as 1.72.
Next, A78C U108C: 2.16.
With C76U U132A the figure was 2.54.
A78U G135A: the self-cleavage came out at 1.8.
Next, A77U A94G: 0.24.
Next, A78U A107G: 2.47; A77G U132A: 2.34.
For A78C A138G, the self-cleavage turned out to be 1.84.
With A78U A117G the figure was 2.93; with A78U A117C, 2.72.
Next, A78G G106A: 1.45; A77G C128G: 1.86; A79G C118U: 2.23.
Next, A79G G114A: 1.23; A79G C145U: 1.09; A78C U96C: 0.29.
As to A77G G89A, the self-cleavage amounted to 0.03.
With A79G U115A the figure was 1.4.
Take A77U U130G: the self-cleavage is 1.86.
Next, A79G U108A: 1.17.
In the case of A79G U108C, the self-cleavage turned out to be 1.61.
With G80A G89A the figure was 0.07.
For the variant C76U U96C, the self-cleavage worked out at 0.13.
Next, C76U U96A: 0.05; A78G G89C: 0.07; G80A G127C: 1.6.
A79G A92U: the self-cleavage was determined as 0.66.
With A79G A92G the figure was 0.18.
Next, A78U U130C: 2.68; A79G G105A: 1.29; A79G G105U: 1.19.
Next, A78U A136C: 2.73; A79G C116U: 1.63.
With A77U U134A, the self-cleavage turned out to be 0.57.
With A77U G127A the figure was 1.48.
